Measured values reported in patent publication US20250154198A1, “PEPTIDE INHIBITORS OF INTERLEUKIN-23 RECEPTOR” (Zealand Pharma A/S, priority 2021, published 2025).
*1 amine or outer side, *2 acyl side, *3 side chain or, on linkers, in order; H or OH if unused. Bridges are numbered along the chain shown (N, C = ends). Primed or numbered codes have the meaning given here. Where no end group is shown, it is not given here. [ ]: non-standard residue; d: D form. 4‑Aminomethyl‑phenylacetyl = 4-aminomethyl-phenylacetyl unit, its amine closes the lactam, O=C(Cc1ccc(CN[*:1])cc1)[*:2]; Q(pyrrolidin)″ = (2S)-2-amino-5-oxo-5-pyrrolidin-1-yl-pentanoic acid, O=C(CC[C@H](N[*:1])C(=O)[*:2])N1CCCC1; 1,3‑dibromopropan‑2‑one(3) = linker giving 1,3-dithio-propan-2-one bridge -SCH2C(=O)CH2S- between Cys; 4‑Aminomethyl‑phenylacetyl″ = N-terminal cap residue, O=C(Cc1ccc(CN[*:1])cc1)[*:2]; Pipz(1-CH2CO,4-CH2CH2NH) = O=C(CN1CCN(CCN[*:1])CC1)[*:2]; Trp(4-F) = N[C@@H](Cc1c[nH]c2cccc(F)c12)C(=O)O; Trp(6-F) = N[C@@H](Cc1c[nH]c2cc(F)ccc12)C(=O)O; Trp(7-F) = N[C@@H](Cc1c[nH]c2c(F)cccc12)C(=O)O; 2Nal = N[C@@H](Cc1ccc2ccccc2c1)C(=O)O; AEF = NCCOc1ccc(C[C@H](N)C(=O)O)cc1; 3Pal = N[C@@H](Cc1cccnc1)C(=O)O; αMeL = CC(C)C[C@](C)(N)C(=O)O; CH2COCH2 = O=C(C[*:1])C[*:2]; αMeV = CC(C)[C@](C)(N)C(=O)O; dDab = NCC[C@@H](N)C(=O)O; Orn = NCCC[C@H](N)C(=O)O; Dab = NCC[C@H](N)C(=O)O; Ahx = NCCCCCC(=O)O; βAla = NCCC(=O)O

T1: human IL-23R endogenously expressed on DB cells (CRL-2289) (human, UniProt Q5VWK5 24-629)
T1 sequence (looked up): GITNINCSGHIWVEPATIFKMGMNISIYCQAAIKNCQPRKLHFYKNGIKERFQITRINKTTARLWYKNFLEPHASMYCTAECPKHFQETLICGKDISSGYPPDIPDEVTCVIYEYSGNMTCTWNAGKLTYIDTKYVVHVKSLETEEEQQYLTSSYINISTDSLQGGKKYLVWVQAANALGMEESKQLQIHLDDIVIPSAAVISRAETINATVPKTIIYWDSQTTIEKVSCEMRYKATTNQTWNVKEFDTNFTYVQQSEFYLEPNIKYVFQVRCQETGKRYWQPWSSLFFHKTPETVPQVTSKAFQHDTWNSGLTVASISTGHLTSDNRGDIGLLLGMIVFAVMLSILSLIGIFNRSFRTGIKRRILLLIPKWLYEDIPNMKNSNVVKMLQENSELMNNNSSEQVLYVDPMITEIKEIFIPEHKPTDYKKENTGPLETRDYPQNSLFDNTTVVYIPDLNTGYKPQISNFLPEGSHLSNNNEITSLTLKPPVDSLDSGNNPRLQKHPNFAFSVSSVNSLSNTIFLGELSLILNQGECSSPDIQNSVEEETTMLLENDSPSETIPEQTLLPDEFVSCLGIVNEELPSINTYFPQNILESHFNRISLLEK

B1: Compound 87 (peptide)
peptide: [Ahx]SCWQC[AEF][2Nal][αMeL]E[dR]-NH2
modifications: lactam (positions not given here); linker 3-6 via CH2COCH2; not fully specified (bridges); printed as [6-Aminohexanoyl](1c)*SC(2a)WQC(2a)[Y(2-aminoethoxy)][2-Nal][2-Me-Leu]E(1c)[{d}R]-[NH2]
B2: Compound 138 (peptide)
peptide: [4‑Aminomethyl‑phenylacetyl]SE[Trp(4-F)]Q[Dab][AEF][2Nal][αMeL]E[Dab]-NH2
modifications: lactam N-10, 3-6
SMILES: CC(C)C[C@]1(C)NC(=O)[C@H](Cc2ccc3ccccc3c2)NC(=O)[C@H](Cc2ccc(OCCN)cc2)NC(=O)[C@@H]2CCNC(=O)CC[C@H](NC(=O)[C@H](CO)NC(=O)Cc3ccc(cc3)CNC(=O)CC[C@@H](C(=O)N[C@@H](CCN)C(N)=O)NC1=O)C(=O)N[C@@H](Cc1c[nH]c3cccc(F)c13)C(=O)N[C@@H](CCC(N)=O)C(=O)N2
B3: Compound 85 (peptide)
peptide: Ac-KTCWQC[AEF][2Nal][αMeL]E[dR]-NH2
modifications: lactam 1-10; linker 3-6 via CH2COCH2
SMILES: CC(=O)N[C@H]1CCCCNC(=O)CC[C@@H](C(=O)N[C@H](CCCNC(=N)N)C(N)=O)NC(=O)[C@](C)(CC(C)C)NC(=O)[C@H](Cc2ccc3ccccc3c2)NC(=O)[C@H](Cc2ccc(OCCN)cc2)NC(=O)[C@@H]2CSCC(=O)CSC[C@H](NC(=O)[C@H]([C@@H](C)O)NC1=O)C(=O)N[C@@H](Cc1c[nH]c3ccccc13)C(=O)N[C@@H](CCC(N)=O)C(=O)N2
B4: Compound 90 (peptide)
peptide: [Pipz(1-CH2CO,4-CH2CH2NH)]SCWQC[AEF][2Nal][αMeL]E[dR]-NH2
modifications: lactam (positions not given here); linker 3-6 via CH2COCH2; not fully specified (bridges); printed as [(4-(2-Aminoethyl)-piperazine-1-yl)-acetyl](1c)*SC(2a)WQC(2a)[Y(2-aminoethoxy)][2-Nal][2-Me-Leu]E(1c)[{d}R]-[NH2]
B5: Compound 124 (peptide)
peptide: [4‑Aminomethyl‑phenylacetyl]SEWQ[Orn][AEF][2Nal][αMeL]E[Dab][3Pal]-NH2
modifications: lactam N-10, 3-6
SMILES: CC(C)C[C@]1(C)NC(=O)[C@H](Cc2ccc3ccccc3c2)NC(=O)[C@H](Cc2ccc(OCCN)cc2)NC(=O)[C@@H]2CCCNC(=O)CC[C@H](NC(=O)[C@H](CO)NC(=O)Cc3ccc(cc3)CNC(=O)CC[C@@H](C(=O)N[C@@H](CCN)C(=O)N[C@@H](Cc3cccnc3)C(N)=O)NC1=O)C(=O)N[C@@H](Cc1c[nH]c3ccccc13)C(=O)N[C@@H](CCC(N)=O)C(=O)N2
B6: Compound 84 (peptide)
peptide: Ac-KSCWQC[AEF][2Nal][αMeL]E[dR]-NH2
modifications: lactam 1-10; linker 3-6 via CH2COCH2
SMILES: CC(=O)N[C@H]1CCCCNC(=O)CC[C@@H](C(=O)N[C@H](CCCNC(=N)N)C(N)=O)NC(=O)[C@](C)(CC(C)C)NC(=O)[C@H](Cc2ccc3ccccc3c2)NC(=O)[C@H](Cc2ccc(OCCN)cc2)NC(=O)[C@@H]2CSCC(=O)CSC[C@H](NC(=O)[C@H](CO)NC1=O)C(=O)N[C@@H](Cc1c[nH]c3ccccc13)C(=O)N[C@@H](CCC(N)=O)C(=O)N2
B7: Compound 136 (peptide)
peptide: [4‑Aminomethyl‑phenylacetyl]SEWQ[Dab][AEF][2Nal][αMeV]E[Dab]-NH2
modifications: lactam N-10, 3-6
SMILES: CC(C)[C@]1(C)NC(=O)[C@H](Cc2ccc3ccccc3c2)NC(=O)[C@H](Cc2ccc(OCCN)cc2)NC(=O)[C@@H]2CCNC(=O)CC[C@H](NC(=O)[C@H](CO)NC(=O)Cc3ccc(cc3)CNC(=O)CC[C@@H](C(=O)N[C@@H](CCN)C(N)=O)NC1=O)C(=O)N[C@@H](Cc1c[nH]c3ccccc13)C(=O)N[C@@H](CCC(N)=O)C(=O)N2
B8: Compound 126 (peptide)
peptide: [4‑Aminomethyl‑phenylacetyl]VEWQ[Dab][AEF][2Nal][αMeL]E[Dab]-NH2
modifications: lactam N-10, 3-6
SMILES: CC(C)C[C@]1(C)NC(=O)[C@H](Cc2ccc3ccccc3c2)NC(=O)[C@H](Cc2ccc(OCCN)cc2)NC(=O)[C@@H]2CCNC(=O)CC[C@H](NC(=O)[C@H](C(C)C)NC(=O)Cc3ccc(cc3)CNC(=O)CC[C@@H](C(=O)N[C@@H](CCN)C(N)=O)NC1=O)C(=O)N[C@@H](Cc1c[nH]c3ccccc13)C(=O)N[C@@H](CCC(N)=O)C(=O)N2
B9: Compound 123 (peptide)
peptide: [4‑Aminomethyl‑phenylacetyl″]S[Dab]WQE[AEF][2Nal][αMeL]E[Dab][3Pal]-NH2
modifications: lactam N-10, 3-6
SMILES: CC(C)C[C@]1(C)NC(=O)[C@H](Cc2ccc3ccccc3c2)NC(=O)[C@H](Cc2ccc(OCCN)cc2)NC(=O)[C@@H]2CCC(=O)NCC[C@H](NC(=O)[C@H](CO)NC(=O)Cc3ccc(cc3)CNC(=O)CC[C@@H](C(=O)N[C@@H](CCN)C(=O)N[C@@H](Cc3cccnc3)C(N)=O)NC1=O)C(=O)N[C@@H](Cc1c[nH]c3ccccc13)C(=O)N[C@@H](CCC(N)=O)C(=O)N2
B10: Compound 139 (peptide)
peptide: [4‑Aminomethyl‑phenylacetyl]SE[Trp(7-F)]Q[Dab][AEF][2Nal][αMeL]E[Dab]-NH2
modifications: lactam N-10, 3-6
SMILES: CC(C)C[C@]1(C)NC(=O)[C@H](Cc2ccc3ccccc3c2)NC(=O)[C@H](Cc2ccc(OCCN)cc2)NC(=O)[C@@H]2CCNC(=O)CC[C@H](NC(=O)[C@H](CO)NC(=O)Cc3ccc(cc3)CNC(=O)CC[C@@H](C(=O)N[C@@H](CCN)C(N)=O)NC1=O)C(=O)N[C@@H](Cc1c[nH]c3c(F)cccc13)C(=O)N[C@@H](CCC(N)=O)C(=O)N2
B11: Compound 145 (peptide)
peptide: [4‑Aminomethyl‑phenylacetyl][Q(pyrrolidin)″]EWQ[Dab][AEF][2Nal][αMeL]E[Dab]-NH2
modifications: lactam N-10, 3-6
SMILES: CC(C)C[C@]1(C)NC(=O)[C@H](Cc2ccc3ccccc3c2)NC(=O)[C@H](Cc2ccc(OCCN)cc2)NC(=O)[C@@H]2CCNC(=O)CC[C@H](NC(=O)[C@H](CCC(=O)N3CCCC3)NC(=O)Cc3ccc(cc3)CNC(=O)CC[C@@H](C(=O)N[C@@H](CCN)C(N)=O)NC1=O)C(=O)N[C@@H](Cc1c[nH]c3ccccc13)C(=O)N[C@@H](CCC(N)=O)C(=O)N2
B12: Compound 9 (peptide)
peptide: DESCWQCWWLXR
HELM: PEPTIDE1{D.E.S.C.W.Q.C.W.W.L.[Dab].R.[am]}|CHEM1{[O=C(C[*:1])C[*:2]]}$PEPTIDE1,PEPTIDE1,2:R3-11:R3|PEPTIDE1,CHEM1,4:R3-1:R1|PEPTIDE1,CHEM1,7:R3-1:R2$$$V2.0
SMILES: CC(C)C[C@@H]1NC(=O)[C@H](Cc2c[nH]c3ccccc23)NC(=O)[C@H](Cc2c[nH]c3ccccc23)NC(=O)[C@@H]2CSCC(=O)CSC[C@H](NC(=O)[C@H](CO)NC(=O)[C@@H](NC(=O)[C@@H](N)CC(=O)O)CCC(=O)NCC[C@@H](C(=O)N[C@@H](CCCNC(=N)N)C(N)=O)NC1=O)C(=O)N[C@@H](Cc1c[nH]c3ccccc13)C(=O)N[C@@H](CCC(N)=O)C(=O)N2

biological target: T1, human IL-23R endogenously expressed on …; assay: cell-based or functional assay

| Binder | IC50 (pSTAT3) |
| --- | --- |
| B1 | 8.89 nM |
| B2 | 39.4 nM |
| B3 | 8.54 nM |
| B4 | 15.8 nM |
| B5 | 0.117 nM |
| B6 | 12.5 nM |
| B7 | 8.8 nM |
| [4‑Aminomethyl‑phenylacetyl]SCWQC[AEF][2Nal][αMeL]E[dQ]-NH2 (lactam N-10; linker 3-6 via 1,3‑dibromopropan‑2‑one(3)) [Compound 115] | 18.9 nM |
| B8 | 28 nM |
| B9 | 25.3 pM |
| [4‑Aminomethyl‑phenylacetyl]SCWQC[AEF][Trp(6-F)][αMeL]E[Dab][3Pal]-NH2 (lactam N-10; linker 3-6 via 1,3‑dibromopropan‑2‑one(3)) [Compound 121] | 0.367 nM |
| B10 | 30.2 nM |
| [4‑Aminomethyl‑phenylacetyl]SCWQC[AEF][2Nal][αMeL]E[dR]-OH (lactam N-10; linker 3-6 via 1,3‑dibromopropan‑2‑one(3)) [Compound 108] | 10.6 nM |
| [4‑Aminomethyl‑phenylacetyl]SCWQC[AEF][2Nal][αMeL]E[dDab]((2-(trimethyl-2-aminoethoxy)ethoxy)propyl)-NH2 (lactam N-10; linker 3-6 via 1,3‑dibromopropan‑2‑one(3)) [Compound 109] | 21.5 nM |
| B11 | 22.7 nM |
| [4‑Aminomethyl‑phenylacetyl]SCWQC[AEF][2Nal][αMeL]E[βAla]-NH2 (lactam N-10; linker 3-6 via 1,3‑dibromopropan‑2‑one(3)) [Compound 119] | 16.7 nM |
| B12 | > 1 µM |
| [4‑Aminomethyl‑phenylacetyl″]SCWQC[AEF][2Nal][αMeL]E[dH]-NH2 (lactam N-10; linker 3-6 via 1,3‑dibromopropan‑2‑one(3)) [Compound 117] | 11.3 nM |
